# From patent US20030073629
# Changes are numbered by the printed parent chain. In names and notes the source's numbering stands.
# B1: C-terminal His6-tagged recombinant wild type mature Omi (Omi lacking the first 133 residues) (protein)
# chain: AVPSPPPASPRSQYNFIADVVEKTAPAVVYIEILDRHPFLGREVPISNGSGFVVAADGLIVTNAHVVADRRRVRVRLLSGDTYEAVVTAVDPVADIATLRIQTKEPLPTLPLGRSADVRQGEFVVAMGSPFALQNTITSGIVSSAQRPARDLGLPQTNVEYIQTDAAIDFGNSGGPLVNLDGEVIGVNTMKVTAGISFAIPSDRLREFLHRGEKKNSSSGISGSQRRYIGVMMLTLSPSILAELQLREPSFPDVQHGVLIHKVILGSPAHRAGLRPGDVILAIGEQMVQNAEDVYEAVRTQSQLAVQIRRGRETLTLYVTPEVTEHHHHHH
# B2: Omi-S306A (C-terminal His6-tagged recombinant mature Omi, active site Ser306 to Ala) (protein)
# chain: B1 chain with S173A
# B3: Omi-deltaAVPS (C-terminal His6-tagged recombinant mature Omi with the AVPS motif deleted) (protein)
# chain: PPPASPRSQYNFIADVVEKTAPAVVYIEILDRHPFLGREVPISNGSGFVVAADGLIVTNAHVVADRRRVRVRLLSGDTYEAVVTAVDPVADIATLRIQTKEPLPTLPLGRSADVRQGEFVVAMGSPFALQNTITSGIVSSAQRPARDLGLPQTNVEYIQTDAAIDFGNSGGPLVNLDGEVIGVNTMKVTAGISFAIPSDRLREFLHRGEKKNSSSGISGSQRRYIGVMMLTLSPSILAELQLREPSFPDVQHGVLIHKVILGSPAHRAGLRPGDVILAIGEQMVQNAEDVYEAVRTQSQLAVQIRRGRETLTLYVTPEVTEHHHHHH
# Target: XIAP, P98170
# Sequence (P98170 whole entry): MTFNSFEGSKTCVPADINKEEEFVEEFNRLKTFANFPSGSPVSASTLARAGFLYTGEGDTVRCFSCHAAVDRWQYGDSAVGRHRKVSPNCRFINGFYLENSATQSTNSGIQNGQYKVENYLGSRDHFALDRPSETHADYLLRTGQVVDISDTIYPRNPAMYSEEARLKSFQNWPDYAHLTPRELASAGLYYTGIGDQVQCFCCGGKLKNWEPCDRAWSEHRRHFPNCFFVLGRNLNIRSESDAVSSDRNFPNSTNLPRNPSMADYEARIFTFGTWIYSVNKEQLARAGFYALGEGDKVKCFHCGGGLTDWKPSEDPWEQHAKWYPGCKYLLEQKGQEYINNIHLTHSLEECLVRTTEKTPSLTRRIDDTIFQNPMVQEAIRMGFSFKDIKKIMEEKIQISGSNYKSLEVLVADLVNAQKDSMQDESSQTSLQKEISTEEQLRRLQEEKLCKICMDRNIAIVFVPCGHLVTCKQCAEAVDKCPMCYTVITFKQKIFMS
row,Protein,procaspase-3 activation in XIAP-containing S100 extracts stimulated with cytochrome c and dATP
1,B1,mature WT Omi or the S306A mutant were able to promote procaspase-3 activation in the XIAP-containing S100 extracts almost to the same extent as Smac
2,B2,mature WT Omi or the S306A mutant were able to promote procaspase-3 activation in the XIAP-containing S100 extracts almost to the same extent as Smac
3,B3,deletion of this motif abolished its caspase-promoting activity
